# Measurements taken from IntAct's records for PubMed 9430655.
# B1: Merlin (Homo sapiens), P35240-1 (parent)
# chain: MAGAIASRMSFSSLKRKQPKTFTVRIVTMDAEMEFNCEMKWKGKDLFDLVCRTLGLRETWFFGLQYTIKDTVAWLKMDKKVLDHDVSKEEPVTFHFLAKFYPENAEEELVQEITQHLFFLQVKKQILDEKIYCPPEASVLLASYAVQAKYGDYDPSVHKRGFLAQEELLPKRVINLYQMTPEMWEERITAWYAEHRGRARDEAEMEYLKIAQDLEMYGVNYFAIRNKKGTELLLGVDALGLHIYDPENRLTPKISFPWNEIRNISYSDKEFTIKPLDKKIDVFKFNSSKLRVNKLILQLCIGNHDLFMRRRKADSLEVQQMKAQAREEKARKQMERQRLAREKQMREEAERTRDELERRLLQMKEEATMANEALMRSEETADLLAEKAQITEEEAKLLAQKAAEAEQEMQRIKATAIRTEEEKRLMEQKVLEAEVLALKMAEESERRAKEADQLKQDLQEAREAERRAKQKLLEIATKPTYPPMNPIPAPLPPDIPSFNLIGDSLSFDFKDTDMKRLSMEIEKEKVEYMEKSKHLQEQLNELKTEIEALKLKERETALDILHNENSDRGGSSKHNTIKKLTLQSAKSRVAFFEEL
# partner: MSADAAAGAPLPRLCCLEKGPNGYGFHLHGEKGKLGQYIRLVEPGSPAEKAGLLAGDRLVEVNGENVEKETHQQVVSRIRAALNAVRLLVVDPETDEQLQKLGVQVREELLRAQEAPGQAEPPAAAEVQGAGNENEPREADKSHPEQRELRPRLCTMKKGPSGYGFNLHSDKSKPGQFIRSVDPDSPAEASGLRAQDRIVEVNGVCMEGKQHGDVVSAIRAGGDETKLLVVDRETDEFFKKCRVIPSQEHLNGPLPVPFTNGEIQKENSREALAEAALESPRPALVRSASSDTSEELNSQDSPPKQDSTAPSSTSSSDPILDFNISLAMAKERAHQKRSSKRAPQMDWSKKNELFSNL
# Variants of: B1
# Conditions: with nhrf1_human NHERF1, O14745
row,effect of a mutation on the interaction,Variant
1,decreasing interaction,MAGAIASRMSFSSLKRKQPKTFTVRIVTMDAEMEFNCEMKWKGKDLFDLVCRTLGLRETWFFGLQYTIKDTVAWLKMDKKVLDHDVSKEEPVTFHFLAKFYPENAEEELVQEITQHLFFLQVKKQILDEKIYCPPEASVLLASYAVQAKYGDYDPSVHKRGFLAQEELLPKRVINLYQMTPEMWEERITAWYAEHRGRARDEAEMEYLKIAQDLEMYGVYYFAIRNKKGTELLLGVDALGLHIYDPENRLTPKISFPWNEIRNISYSDKEFTIKPLDKKIDVFKFNSSKLRVNKLILQLCIGNHDLFMRRRKADSLEVQQMKAQAREEKARKQMERQRLAREKQMREEAERTRDELERRLLQMKEEATMANEALMRSEETADLLAEKAQITEEEAKLLAQKAAEAEQEMQRIKATAIRTEEEKRLMEQKVLEAEVLALKMAEESERRAKEADQLKQDLQEAREAERRAKQKLLEIATKPTYPPMNPIPAPLPPDIPSFNLIGDSLSFDFKDTDMKRLSMEIEKEKVEYMEKSKHLQEQLNELKTEIEALKLKERETALDILHNENSDRGGSSKHNTIKKLTLQSAKSRVAFFEEL [N220Y]
